From patent US20240207464A1 come the findings set out here.

Assay [1] addresses Protein G (Dynabeads Protein G, Thermo Fisher Scientific) (UniProt P19909). Put plainly: immunoprecipitation with Dynabeads Protein G after storage in monkey plasma at 37 C, 0 day point.
The target is the same in assay [2]. Put plainly: immunoprecipitation with Dynabeads Protein G after storage in monkey plasma at 37 C, 1 day point.
Assay [3] shares this target. Put plainly: immunoprecipitation with Dynabeads Protein G after storage in rat plasma at 37 C, 1 day point.
Assay [4] has the same target. Put plainly: immunoprecipitation with Dynabeads Protein G after storage in rat plasma at 37 C, 7 day point.
The target is the same in assay [5]. Put plainly: immunoprecipitation with Dynabeads Protein G after storage in mouse plasma at 37 C, 0 day point.
For assay [6] the target is unchanged. Put plainly: immunoprecipitation with Dynabeads Protein G after storage in human plasma at 37 C, 7 day point.
The target is the same in assay [7]. Put plainly: immunoprecipitation with Dynabeads Protein G after storage in mouse plasma at 37 C, 1 day point.
The target is the same in assay [8]. Put plainly: immunoprecipitation with Dynabeads Protein G after storage in human plasma at 37 C, 1 day point.
For assay [9] the target is unchanged. Put plainly: immunoprecipitation with Dynabeads Protein G after storage in human plasma at 37 C, 14 day point.
Assay [10] shares this target. Put plainly: immunoprecipitation with Dynabeads Protein G after storage in human plasma at 37 C, 0 day point; share of radioactivity bound to Protein G.
Assay [11] has the same target. Put plainly: immunoprecipitation with Dynabeads Protein G after storage in rat plasma at 37 C, 0 day point.
For assay [12] the target is unchanged. Put plainly: immunoprecipitation with Dynabeads Protein G after storage in mouse plasma at 37 C, 7 day point.
Assay [13] has the same target. Put plainly: immunoprecipitation with Dynabeads Protein G after storage in monkey plasma at 37 C, 7 day point.

Consider “radioconjugate (Example 1): conjugate with rituximab by using 225Ac-labeled DOTAGA-DBCO (antibody)”, for which the recovery rate (%) by beads in assay [1] was 92.9%; in assay [2], 90.4%; in [3], 94.8%; in assay [4], 90.4%; in [5], 98.1%; in [6], 81%. The recovery rate (%) by beads in assay [7] was 95%; in assay [8] it was 90.5%; in assay [9], 76.4%; in assay [10] it was 95%; in assay [11], 97.4%; in [12] it was 93.1%. Moreover, the recovery rate (%) by beads in [13] came out at 90.5%.
